# Test results from the supplement of paper PMC10065799, “High-throughput profiling of sequence recognition by tyrosine kinases and SH2 domains using bacterial peptide display” (eLife, 2023).
# Molecular target: MERTK (UniProt Q12866)
# Test: phosphorylation enrichment, bacterial display (enrichment ratio); higher = better substrate or ligand; peptides without Tyr show the background
# 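Note: 11-residue human phosphosite peptides and single-mutation variants displayed on the E. coli surface, counted by deep sequencing, each peptide's frequency after selection divided by its frequency in the unselected input library; frequency after pTyr selection over input frequency; kinase dosed for 20-30% of maximal phosphorylation in three min.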
# Chain of MERTK (Q12866 whole entry, looked up): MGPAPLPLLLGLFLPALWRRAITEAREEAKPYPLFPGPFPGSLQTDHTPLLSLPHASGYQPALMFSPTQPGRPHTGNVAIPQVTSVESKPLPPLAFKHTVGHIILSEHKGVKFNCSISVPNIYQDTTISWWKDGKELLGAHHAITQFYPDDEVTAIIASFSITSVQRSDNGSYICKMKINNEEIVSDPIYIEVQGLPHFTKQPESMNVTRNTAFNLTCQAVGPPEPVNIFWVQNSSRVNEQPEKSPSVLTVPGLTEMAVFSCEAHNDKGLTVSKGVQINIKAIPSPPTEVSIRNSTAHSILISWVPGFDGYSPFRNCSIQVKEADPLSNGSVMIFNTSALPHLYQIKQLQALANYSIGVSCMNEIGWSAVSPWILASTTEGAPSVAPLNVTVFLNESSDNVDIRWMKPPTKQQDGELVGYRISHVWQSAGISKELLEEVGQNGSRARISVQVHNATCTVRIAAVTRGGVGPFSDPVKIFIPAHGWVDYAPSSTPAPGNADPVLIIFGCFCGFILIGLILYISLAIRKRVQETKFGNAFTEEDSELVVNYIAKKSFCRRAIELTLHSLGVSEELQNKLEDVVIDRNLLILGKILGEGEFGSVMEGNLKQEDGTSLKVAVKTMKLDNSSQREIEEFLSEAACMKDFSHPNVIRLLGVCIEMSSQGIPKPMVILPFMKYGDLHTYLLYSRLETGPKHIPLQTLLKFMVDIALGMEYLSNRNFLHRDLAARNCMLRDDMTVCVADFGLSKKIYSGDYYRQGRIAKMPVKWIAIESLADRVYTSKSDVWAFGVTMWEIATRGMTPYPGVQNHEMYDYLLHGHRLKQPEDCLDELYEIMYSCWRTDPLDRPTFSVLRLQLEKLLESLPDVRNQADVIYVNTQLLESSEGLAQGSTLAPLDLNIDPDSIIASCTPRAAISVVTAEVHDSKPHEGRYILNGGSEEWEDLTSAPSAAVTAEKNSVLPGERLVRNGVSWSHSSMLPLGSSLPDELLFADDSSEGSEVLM
row,Sequence,phosphorylation enrichment
1,KGNMFYENSFA [EGFR_Y113_R108K_YF],0.484
2,RAIGHYSATSK [FAM120A_Y328_Y327H],0.757
3,HGTKVYIDPFT [EPHB4_Y590],1.03
4,DGTVHYVDEKG [IFT140_Y216],0.443
5,SKEPFYVHCIK [MYO1D_Y586_R588H_YF],0.433
6,MKGDFYRSLAE [YWHAG_Y131_Y133S_YF],0.37
7,RHTRSYDYMEG [FGF7_Y56],0.628
8,ASKEPYYVHCI [MYO1D_Y585_R588H],0.636
9,HNMPIYEGFAL [ACTA1_Y168_V165M_YF],14.7
10,LQEQNYLAVDS [FAM114A1_Y115],1.17
11,LTSKPYAFTAW [NDUFS1_Y236_R241W],1.12
12,CDYKKYGKGLR [ZNF445_Y433_Y428C],0.335
13,VRALTYCDLHK [KCNH2_Y827],0.453
14,HFGNNYRDVLQ [MACC1_Y803_YF],0.64
15,TPSGNYVACGG [GNB1_Y111_A106T],0.516
16,GHLYAYDWIRI [BEST1_Y227_S231R],9.27
17,RFVTRHIFNRE [HLA-DQB1_Y62_Y62H_YF],0.583
18,RHLQEYQDPLN [GFAP_Y349_L352P],0.576
19,VFGVSYDEFRF [CFTR_Y512_I507V_YF],0.799
20,KNNSIYVVANI [VNN1_Y134],0.885
21,RRGLLYDSDEE [MCM2_Y137],0.855
22,PRPAGYPSTVS [CACNA1C_Y1832],0.363
23,GGMTEYKLVVV [KRAS_Y4],0.368
24,HYEFKYVINAI [MAOA_Y268_C266F],0.572
25,SVMVPYEPPEV [TP53_Y220_V217M],0.433
26,DHAGEYGAEAL [HBA1_Y25_A20D],0.343
27,VKALKYKSMKI [ITGA11_Y1098_L1093V],0.276
28,DKATEYIQFMR [MAX_Y70_YF],0.439
29,AFPVSYSSSGA [RET_Y687],0.454

# System: c-Abl (mouse)
# Test: as above
row,Sequence,phosphorylation enrichment
1,KGNMFYENSFA [EGFR_Y113_R108K_YF],0.645
2,RAIGHYSATSK [FAM120A_Y328_Y327H],0.777
3,HGTKVYIDPFT [EPHB4_Y590],0.725
4,DGTVHYVDEKG [IFT140_Y216],0.653
5,SKEPFYVHCIK [MYO1D_Y586_R588H_YF],0.631
6,MKGDFYRSLAE [YWHAG_Y131_Y133S_YF],0.585
7,RHTRSYDYMEG [FGF7_Y56],0.552
8,ASKEPYYVHCI [MYO1D_Y585_R588H],0.627
9,HNMPIYEGFAL [ACTA1_Y168_V165M_YF],29.2
10,LQEQNYLAVDS [FAM114A1_Y115],0.817
11,LTSKPYAFTAW [NDUFS1_Y236_R241W],0.503
12,CDYKKYGKGLR [ZNF445_Y433_Y428C],0.525
13,VRALTYCDLHK [KCNH2_Y827],0.656
14,HFGNNYRDVLQ [MACC1_Y803_YF],0.848
15,TPSGNYVACGG [GNB1_Y111_A106T],0.677
16,GHLYAYDWIRI [BEST1_Y227_S231R],0.857
17,RFVTRHIFNRE [HLA-DQB1_Y62_Y62H_YF],0.719
18,RHLQEYQDPLN [GFAP_Y349_L352P],0.753
19,VFGVSYDEFRF [CFTR_Y512_I507V_YF],0.823
20,KNNSIYVVANI [VNN1_Y134],0.8
21,RRGLLYDSDEE [MCM2_Y137],0.59
22,PRPAGYPSTVS [CACNA1C_Y1832],0.653
23,GGMTEYKLVVV [KRAS_Y4],0.539
24,HYEFKYVINAI [MAOA_Y268_C266F],1.28
25,SVMVPYEPPEV [TP53_Y220_V217M],0.804
26,DHAGEYGAEAL [HBA1_Y25_A20D],0.546
27,VKALKYKSMKI [ITGA11_Y1098_L1093V],0.472
28,DKATEYIQFMR [MAX_Y70_YF],0.803
29,AFPVSYSSSGA [RET_Y687],0.53
